The results in this text go back to patent US20150344570A1 (published 2015).

Experiment [1] addresses FcγRIIa H (human, UniProt P12318 34-217). In words: SPR Biacore, captured antibody, FcγR analyte; vs GpH7-A5/GpH7-B3/GpL16-k0 = 100.
In experiment [2] the target is T1, FcγRIa (human, UniProt P12314 16-292).
T1 construct: extracellular domain; Soluble extracellular domain with C-terminal His tag, used as analyte; also called FcgRI; CD64; not shown: His tag at the C terminus
In words: SPR (Biacore), captured antibody, FcγR as analyte, relative binding. Here is the method:
(§1) The heterodimerized antibodies He Abs in which one of the H chains was introduced with an alteration were assayed for their binding activities to each activating FcγR and inhibitory FcγR according to the method described in Example 4. […] The activating FcγRs in FIGS. 26, 27, 28, and 29 are FcγRIa, FcγRIIa (R), FcγRIIa (H), and FcγRIIIa, respectively.
(§2) Analysis of interaction between objective antibody and the FcγR was carried out using Biacore T100 (GE Healthcare). HBS-EP+ (GE Healthcare) was used as the running buffer, and the measurement temperature was set to 25° C. Chips produced by immobilizing the antigen peptide by the amine coupling method to a Series S Sencor Chip CM5 (GE Healthcare), or alternatively, chips produced by allowing preliminarily biotinylated antigen peptides to interact with and immobilize onto a Series S Sensor Chip SA (certified) (GE Healthcare) were used. Antibodies of interest were captured onto an antigen peptide-immobilized chip, and allowed to interact to each FcγR diluted with running buffer. To regenerate and repeatedly use the chip, the antibodies captured on the chip were washed off by reacting 10 mM glycine-HCl, pH 1.5.
For orientation: SPR reads the build-up and loss of mass on a sensor chip optically.

Experiment [3] deals with T2, FcγRIIb (human, UniProt P31994 43-217).
T2 construct: extracellular domain; Soluble extracellular domain with C-terminal His tag, used as analyte; also called FcgRIIb; CD32B; not shown: His tag at the C terminus
T2 sequence (looked up): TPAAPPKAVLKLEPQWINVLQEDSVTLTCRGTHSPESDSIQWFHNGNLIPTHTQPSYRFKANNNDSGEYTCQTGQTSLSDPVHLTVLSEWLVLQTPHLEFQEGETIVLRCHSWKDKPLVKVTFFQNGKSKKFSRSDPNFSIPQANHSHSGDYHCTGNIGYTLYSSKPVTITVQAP
The description is as above. Here is the method: as §1, §2

Sequence of FcγRIIa H (P12318 34-217): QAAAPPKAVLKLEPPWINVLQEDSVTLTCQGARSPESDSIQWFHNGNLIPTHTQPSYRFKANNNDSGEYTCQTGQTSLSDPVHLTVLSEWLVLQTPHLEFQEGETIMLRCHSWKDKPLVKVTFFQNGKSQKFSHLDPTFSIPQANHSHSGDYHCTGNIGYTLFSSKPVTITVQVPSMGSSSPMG
T1 sequence (P12314 16-292): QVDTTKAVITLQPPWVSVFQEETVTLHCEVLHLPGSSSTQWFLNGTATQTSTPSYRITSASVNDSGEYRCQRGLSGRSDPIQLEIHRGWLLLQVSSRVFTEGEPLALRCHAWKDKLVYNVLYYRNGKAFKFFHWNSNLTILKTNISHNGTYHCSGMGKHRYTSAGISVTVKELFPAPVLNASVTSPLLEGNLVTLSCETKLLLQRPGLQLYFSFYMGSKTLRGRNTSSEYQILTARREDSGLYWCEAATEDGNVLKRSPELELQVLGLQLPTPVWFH

B1: GpH7-A5/GpH7-B3 variant S267_02A/GpL16-k0 (antibody, human IgG1, kappa)
heavy 1: not shown
heavy 2: not shown
light: DIVMTQSPLSLPVTPGEPASISCQASESLVHSNRNTYLHWYLQKPGQSPQLLIYKVSNRFSGVPDRFSGSGSGTDFTLKISRVEAEDVGVYYCSQNTHVPPTFGQGTKVEIERTVAAPSVFIFPPSDEQLKSGTASVVCLLNNFYPREAKVQWKVDNALQSGNSQESVTEQDSKDSTYSLSSTLTLSKADYEKHKVYACEVTHQGLSSPVTKSFNRGEC
notes: also called He Ab S267_02A
For the molecule B1, the He/Con_2aH in experiment [1] was 120 % of control.

B2: GpH7-A5/GpH7-B3 variant K334_16H/GpL16-k0 (antibody, human IgG1, kappa)
heavy 1: not shown
heavy 2: not shown
light: B1 light
notes: also called He Ab K334_16H
With B2, in experiment [1], the He/Con_2aH is 104 % of control.

B3: GpH7-A5/GpH7-B3 variant S239_09D/GpL16-k0 (antibody, human IgG1, kappa)
heavy 1: not shown
heavy 2: not shown
light: B1 light
notes: also called He Ab S239_09D
As for B3, the He/Con_2aH in experiment [1] is 114 % of control.

B4: GpH7-A5/GpH7-B3 variant T335_13S/GpL16-k0 (antibody, human IgG1, kappa)
heavy 1: not shown
heavy 2: not shown
light: B1 light
notes: also called He Ab T335_13S
As to B4, in experiment [1], the He/Con_2aH is 106 % of control.

B5: GpH7-A5/GpH7-B3 variant T335_16H/GpL16-k0 (antibody, human IgG1, kappa)
heavy 1: not shown
heavy 2: not shown
light: B1 light
notes: also called He Ab T335_16H
As to B5, the He/Con_2aH in experiment [1] is 105 % of control.

B6: GpH7-A5/GpH7-B3 variant A327_13S/GpL16-k0 (antibody, human IgG1, kappa)
heavy 1: not shown
heavy 2: not shown
light: B1 light
notes: He Ab: mutation in one H chain only; also called He Ab
As for B6, in experiment [2], the He/Con_1a is 102 % of GpH7-A5/GpH7-B3/GpL16-k0. The He/Con_2b in experiment [3] was 79.5 % of GpH7-A5/GpH7-B3/GpL16-k0.

B7: GpH7-A5/GpH7-B3 variant I336_16H/GpL16-k0 (antibody, human IgG1, kappa)
heavy 1: not shown
heavy 2: not shown
light: B1 light
notes: as for B6
For the molecule B7, the He/Con_1a in experiment [2] is 101 % of GpH7-A5/GpH7-B3/GpL16-k0. Besides, the He/Con_2b in experiment [3] was 85.8 % of GpH7-A5/GpH7-B3/GpL16-k0.

B8: GpH7-A5/GpH7-B3 variant I336_14T/GpL16-k0 (antibody, human IgG1, kappa)
heavy 1: not shown
heavy 2: not shown
light: B1 light
notes: as for B6
As for B8, in experiment [2], the He/Con_1a was 104 % of GpH7-A5/GpH7-B3/GpL16-k0. Further, the He/Con_2b in experiment [3] is 89.5 % of GpH7-A5/GpH7-B3/GpL16-k0.

B9: GpH7-A5/GpH7-B3 variant A327_11K/GpL16-k0 (antibody, human IgG1, kappa)
heavy 1: not shown
heavy 2: not shown
light: B1 light
notes: as for B6
For the molecule B9, the He/Con_1a in experiment [2] is 86.1 % of GpH7-A5/GpH7-B3/GpL16-k0. Moreover, in experiment [3], the He/Con_2b is 12.5 % of GpH7-A5/GpH7-B3/GpL16-k0.

B10: GpH7-A5/GpH7-B3 variant I336_09D/GpL16-k0 (antibody, human IgG1, kappa)
heavy 1: not shown
heavy 2: not shown
light: B1 light
notes: as for B6
For the molecule B10, in experiment [2], the He/Con_1a is 104 % of GpH7-A5/GpH7-B3/GpL16-k0. The He/Con_2b in experiment [3] is 92.1 % of GpH7-A5/GpH7-B3/GpL16-k0.

B11: GpH7-A5/GpH7-B3 variant I336_04F/GpL16-k0 (antibody, human IgG1, kappa)
heavy 1: not shown
heavy 2: not shown
light: B1 light
notes: as for B6
Regarding B11, in experiment [2], the He/Con_1a is 106 % of GpH7-A5/GpH7-B3/GpL16-k0. In addition, the He/Con_2b in experiment [3] is 91.2 % of GpH7-A5/GpH7-B3/GpL16-k0.

B12: GpH7-A5/GpH7-B3 variant I336_11K/GpL16-k0 (antibody, human IgG1, kappa)
heavy 1: not shown
heavy 2: not shown
light: B1 light
notes: as for B6
For the molecule B12, the He/Con_1a in experiment [2] is 105 % of GpH7-A5/GpH7-B3/GpL16-k0. The He/Con_2b in experiment [3] is 90.3 % of GpH7-A5/GpH7-B3/GpL16-k0.

B13: GpH7-A5/GpH7-B3 variant A327_05P/GpL16-k0 (antibody, human IgG1, kappa)
heavy 1: not shown
heavy 2: not shown
light: B1 light
notes: as for B6
As for B13, the He/Con_1a in experiment [2] was 99.3 % of GpH7-A5/GpH7-B3/GpL16-k0. The He/Con_2b in experiment [3] was 69.3 % of GpH7-A5/GpH7-B3/GpL16-k0.

B14: GpH7-A5/GpH7-B3 variant I336_12R/GpL16-k0 (antibody, human IgG1, kappa)
heavy 1: not shown
heavy 2: not shown
light: B1 light
notes: as for B6
Consider B14, for which the He/Con_1a in experiment [2] was 102 % of GpH7-A5/GpH7-B3/GpL16-k0. For the same molecule, the He/Con_2b in experiment [3] is 92.1 % of GpH7-A5/GpH7-B3/GpL16-k0.

B15: GpH7-A5/GpH7-B3 variant I336_13S/GpL16-k0 (antibody, human IgG1, kappa)
heavy 1: not shown
heavy 2: not shown
light: B1 light
notes: as for B6
Turning to B15, in experiment [2], the He/Con_1a is 102 % of GpH7-A5/GpH7-B3/GpL16-k0. In addition, in experiment [3], the He/Con_2b was 83.7 % of GpH7-A5/GpH7-B3/GpL16-k0.

B16: GpH7-A5/GpH7-B3 variant I336_18N/GpL16-k0 (antibody, human IgG1, kappa)
heavy 1: not shown
heavy 2: not shown
light: B1 light
notes: as for B6
In the case of B16, in experiment [2], the He/Con_1a was 108 % of GpH7-A5/GpH7-B3/GpL16-k0. Further, the He/Con_2b in experiment [3] is 97.6 % of GpH7-A5/GpH7-B3/GpL16-k0.

B17: GpH7-A5/GpH7-B3 variant A327_08L/GpL16-k0 (antibody, human IgG1, kappa)
heavy 1: not shown
heavy 2: not shown
light: B1 light
notes: as for B6
Consider B17, for which the He/Con_1a in experiment [2] is 98.6 % of GpH7-A5/GpH7-B3/GpL16-k0. Also, in experiment [3], the He/Con_2b is 63.1 % of GpH7-A5/GpH7-B3/GpL16-k0.

B18: GpH7-A5/GpH7-B3 variant I336_15Y/GpL16-k0 (antibody, human IgG1, kappa)
heavy 1: not shown
heavy 2: not shown
light: B1 light
notes: as for B6
Turning to B18, the He/Con_1a in experiment [2] was 103 % of GpH7-A5/GpH7-B3/GpL16-k0. Further, in experiment [3], the He/Con_2b was 68.2 % of GpH7-A5/GpH7-B3/GpL16-k0.

B19: GpH7-A5/GpH7-B3 variant A327_06M/GpL16-k0 (antibody, human IgG1, kappa)
heavy 1: not shown
heavy 2: not shown
light: B1 light
notes: as for B6
Consider B19, for which, in experiment [2], the He/Con_1a was 103 % of GpH7-A5/GpH7-B3/GpL16-k0. Further, the He/Con_2b in experiment [3] is 59.5 % of GpH7-A5/GpH7-B3/GpL16-k0.

B20: GpH7-A5/GpH7-B3 variant A327_15Y/GpL16-k0 (antibody, human IgG1, kappa)
heavy 1: not shown
heavy 2: not shown
light: B1 light
notes: as for B6
For the molecule B20, the He/Con_1a in experiment [2] was 96.3 % of GpH7-A5/GpH7-B3/GpL16-k0. Also, the He/Con_2b in experiment [3] is 60.8 % of GpH7-A5/GpH7-B3/GpL16-k0.

B21: GpH7-A5/GpH7-B3 variant A327_04F/GpL16-k0 (antibody, human IgG1, kappa)
heavy 1: not shown
heavy 2: not shown
light: B1 light
notes: as for B6
Regarding B21, the He/Con_1a in experiment [2] was 99.1 % of GpH7-A5/GpH7-B3/GpL16-k0. Also, the He/Con_2b in experiment [3] is 63.7 % of GpH7-A5/GpH7-B3/GpL16-k0.

B22: GpH7-A5/GpH7-B3 variant I336_10E/GpL16-k0 (antibody, human IgG1, kappa)
heavy 1: not shown
heavy 2: not shown
light: B1 light
notes: as for B6
With B22, in experiment [2], the He/Con_1a was 108 % of GpH7-A5/GpH7-B3/GpL16-k0. Besides, the He/Con_2b in experiment [3] was 89.8 % of GpH7-A5/GpH7-B3/GpL16-k0.
